From US20240343823A1 (Ablynx, published 2024)
Numbering of substitutions follows the chain as printed. Like-named read-outs stand apart in the source and are kept apart here.

B1: A022600096 (other)
chain: DVQLVESGGGLVQPGGSLRLSCVASGYVHKINFYGWYRQAPGKEREKVAHISIGDQTDYADSAKGRFTISRDESKNTVYLQMNSLRPEDTALYYCRALSRIWPYDYWGQGTLVTVSSGGGGSGGGGSGGGGSGGGGSGGGGSGGGGSGGGGSEVQLVESGGGLVQPGGSLRLSCVASGFTFSSFAMTWVRRPPGKGLEWVATITNGGVTSYRDSVKGRFTISRDNAKNTLYLEMTSLNPEDTAVYICANARRTGPRAPTDIGSYRGQGTLVTVSSGGGGSGGGGSGGGGSGGGGSGGGGSGGGGSGGGGSEVQLVESGGGVVQPGGSLRLSCAASGFTFRSFGMSWVRQAPGKGPEWVSSISGSGSDTLYADSVKGRFTISRDNSKNTLYLQMNSLRPEDTALYYCTIGGSLSRSSQGTLVTVSSA
B2: A022600105 (other)
chain: DVQLVESGGGVVQPGGSLRLSCVASGYVHKINFYGWYRQAPGKEREKVAHISIGDQTDYADSAKGRFTISRDESKNTVYLQMNSLRPEDTALYYCRALSRIWPYDYWGQGTLVTVSSGGGGSGGGGSGGGGSGGGGSEVQLVESGGGLVQPGGSLRLSCVASGFTFSSFAMTWVRRPPGKGLEWVATITNGGVTSYRDSVKGRFTISRDNAKNTLYLEMTSLNPEDTAVYICANARRTGPRAPTDIGSYRGQGTLVTVSSGGGGSGGGGSGGGGSGGGGSGGGGSGGGGSGGGGSEVQLVESGGGVVQPGGSLRLSCAASGFTFRSFGMSWVRQAPGKGPEWVSSISGSGSDTLYADSVKGRFTISRDNSKNTLYLQMNSLRPEDTALYYCTIGGSLSRSSQGTLVTVSSA
B3: A022600132 (other)
chain: DVQLVESGGGVVQPGGSLRLSCVASGYVHKINFYGWYRQAPGKEREKVAHISIGDQTDYADSAKGRFTISRDESKNTVYLQMNSLRPEDTALYYCRALSRIWPYDYWGQGTLVTVSSGGGGSEVQLVESGGGLVQPGGSLRLSCVASGFTFSSFAMTWVRRPPGKGLEWVATITNGGVTSYRDSVKGRFTISRDNAKNTLYLEMTSLNPEDTAVYICANARRTGPRAPTDIGSYRGQGTLVTVSSGGGGSGGGSEVQLVESGGGLVQPGGSLRLSCVASGSIFRSVFSSSTMEWYRQPPGKKRELVARIAPGDGTNYGALYADSVKGRFTISRDDAKKTVDLQMNSLKPEDTGVYFCASGVAWGQGTLVTVSSGGGGSGGGGSGGGGSGGGGSGGGGSGGGGSGGGGSEVQLVESGGGVVQPGGSLRLSCAASGFTFRSFGMSWVRQAPGKGPEWVSSISGSGSDTLYADSVKGRFTISRDNSKNTLYLQMNSLRPEDTALYYCTIGGSLSRSSQGTLVTVSSA
B4: A022600104 (other)
chain: DVQLVESGGGVVQPGGSLRLSCVASGYVHKINFYGWYRQAPGKEREKVAHISIGDQTDYADSAKGRFTISRDESKNTVYLQMNSLRPEDTALYYCRALSRIWPYDYWGQGTLVTVSSGGGGSGGGSEVQLVESGGGLVQPGGSLRLSCVASGFTFSSFAMTWVRRPPGKGLEWVATITNGGVTSYRDSVKGRFTISRDNAKNTLYLEMTSLNPEDTAVYICANARRTGPRAPTDIGSYRGQGTLVTVSSGGGGSGGGGSGGGGSGGGGSGGGGSGGGGSGGGGSEVQLVESGGGVVQPGGSLRLSCAASGFTFRSFGMSWVRQAPGKGPEWVSSISGSGSDTLYADSVKGRFTISRDNSKNTLYLQMNSLRPEDTALYYCTIGGSLSRSSQGTLVTVSSA
B5: A022600102 (other)
chain: DVQLVESGGGVVQPGGSLRLSCVASGYVHKINFYGWYRQAPGKEREKVAHISIGDQTDYADSAKGRFTISRDESKNTVYLQMNSLRPEDTALYYCRALSRIWPYDYWGQGTLVTVSSAAAEVQLVESGGGLVQPGGSLRLSCVASGFTFSSFAMTWVRRPPGKGLEWVATITNGGVTSYRDSVKGRFTISRDNAKNTLYLEMTSLNPEDTAVYICANARRTGPRAPTDIGSYRGQGTLVTVSSGGGGSGGGGSGGGGSGGGGSGGGGSGGGGSGGGGSEVQLVESGGGVVQPGGSLRLSCAASGFTFRSFGMSWVRQAPGKGPEWVSSISGSGSDTLYADSVKGRFTISRDNSKNTLYLQMNSLRPEDTALYYCTIGGSLSRSSQGTLVTVSSA
B6: A022600167 (other)
chain: DVQLVESGGGVVQPGGSLRLSCVASGYVHKINFYGWYRQAPGKEREKVAHISIGDQTDYADSAKGRFTISRDESKNTVYLQMNSLRPEDTAAYYCRALSRIWPYDYWGQGTLVTVSSGGGGSEVQLVESGGGLVQPGGSLRLSCVASGFTFSSFAMTWVRRPPGKGLEWVATITNGGVTSYRDSVKGRFTISRDNAKNTLYLEMTSLNPEDTAVYICANARRTGPRAPTDIGSYRGQGTLVTVSSGGGGSGGGGSGGGGSGGGGSGGGGSGGGGSGGGGSEVQLVESGGGVVQPGGSLRLSCAASGFTFRSFGMSWVRQAPGKGPEWVSSISGSGSDTLYADSVKGRFTISRDNSKNTLYLQMNSLRPEDTALYYCTIGGSLSRSSQGTLVTVSSA
B7: A022600103 (other)
chain: B6 chain with A92L

How the values were obtained:
Assay in all cases: cell-based or functional assay
[1] = molecular target: T1, human GPC3 on tumor cell lines (HepG2, Huh-7, NCI-H661, MKN-45, NCI-H23, BxPC-3, NCI-H292) (human, UniProt P51654 25-554)
[2] = molecular target: T1, human GPC3 on tumor cell lines (HepG2, …); remark: listed apart in the source
[3] = molecular target: T1, human GPC3 on tumor cell lines (HepG2, …); remark: listed apart in the source
[4] = molecular target: T1, human GPC3 on tumor cell lines (HepG2, …); remark: listed apart in the source
[5] = molecular target: T1, human GPC3 on tumor cell lines (HepG2, …); remark: listed apart in the source
[6] = molecular target: T1, human GPC3 on tumor cell lines (HepG2, …); remark: listed apart in the source

| Binder | IC50 (M), Incucyte human TDC HepG2-Nuclight green assay [1] [M] | Max % Killing, Incucyte human TDC HepG2-Nuclight green assay [1] [%] | HepG2 on Incucyte IC50 [3] [nM] | HepG2 on Incucyte Max % killing [3] [%] | Huh7 on xCELLigence IC50 [3] [nM] | Huh7 on xCELLigence Max % killing [3] [%] | other results |
| --- | --- | --- | --- | --- | --- | --- | --- |
| B1 | 1.4e-09 | 72 |  |  |  |  |  |
| B2 | 2.14e-09 | 85 |  |  |  |  |  |
| B3 |  |  | 0.683 | 83 | 0.29 | 95 | IC50 (M), Incucyte human TDC HepG2-Nuclight green assay [2]: 7.02e-10 M; Max % Killing, Incucyte human TDC HepG2-Nuclight green assay [2]: 91% |
| B4 | 2.13e-09 | 90 |  |  |  |  |  |
| B5 | 1.72e-09 | 94 |  |  |  |  |  |
| B6 |  |  | 1.92 | 98 | 8.61 | 91 | HepG2 on Incucyte IC50 [4]: 1.92 nM; HepG2 on Incucyte Max % killing [4]: 98%; Huh7 on xCELLigence IC50 [4]: 8.61 nM; Huh7 on xCELLigence Max % killing [4]: 91%; HepG2 on Incucyte IC50 [5]: 1.92 nM; HepG2 on Incucyte Max % killing [5]: 98%; Huh7 on xCELLigence IC50 [5]: 8.61 nM; Huh7 on xCELLigence Max % killing [5]: 91%; IC50 (M), xCELLigence human TDC assay, Hep-G2 [6]: 9.2e-11 M; IC50 (M), xCELLigence human TDC assay, Huh-7 [6]: 4.7e-10 M; IC50 (M), xCELLigence human TDC assay, NCI-H661 [6]: 1.8e-10 M |
| B7 | 2.04e-09 | 92 | 1.23 | 96 | 7.11 | 71 | IC50 (M), Incucyte human TDC HepG2-Nuclight green assay [2]: 5.43e-10 M; Max % Killing, Incucyte human TDC HepG2-Nuclight green assay [2]: 90% |
